Where a chain is given by its changes, count along the chain named.
Key:
Test in all cases: ITC; Lge1-CT (50–60 μM) injected into Bre1-LR (15 μM); 25°C, 20 mM TRIS (pH 7.5), 200 mM sodium chloride
Details in all cases: both partners purified
Bre1-LR K379E = target: T1, Bre1-LR K379E (budding yeast, UniProt Q07457 227-700, K379E)
T1 construct: source: E. coli BL21 Rosetta (DE3), purified (Ni-NTA, heparin, gel filtration)
T1 sequence (looked up): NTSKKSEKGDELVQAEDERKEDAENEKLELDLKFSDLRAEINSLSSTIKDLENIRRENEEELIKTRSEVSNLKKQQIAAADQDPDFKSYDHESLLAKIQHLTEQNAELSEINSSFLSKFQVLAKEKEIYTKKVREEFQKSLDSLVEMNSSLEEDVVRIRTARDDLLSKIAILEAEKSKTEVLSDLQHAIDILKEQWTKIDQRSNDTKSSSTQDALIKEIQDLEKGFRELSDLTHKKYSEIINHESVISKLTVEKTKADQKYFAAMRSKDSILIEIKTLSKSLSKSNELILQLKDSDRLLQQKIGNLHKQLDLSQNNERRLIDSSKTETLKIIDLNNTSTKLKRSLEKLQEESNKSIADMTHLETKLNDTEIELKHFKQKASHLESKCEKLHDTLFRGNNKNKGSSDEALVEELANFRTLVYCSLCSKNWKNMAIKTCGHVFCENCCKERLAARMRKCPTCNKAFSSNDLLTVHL

Bre1-LR K352E = target: T2, Bre1-LR K352E (budding yeast, UniProt Q07457 227-700, K352E)
T2 construct: source: E. coli BL21 Rosetta (DE3), purified (Ni-NTA, heparin, gel filtration)
T2 sequence (looked up): T1 sequence (looked up) with K126E, E153K

Bre1-LR A489N = target: T3, Bre1-LR A489N (budding yeast, UniProt Q07457 227-700, A489N)
T3 construct: source: E. coli BL21 Rosetta (DE3), purified (Ni-NTA, heparin, gel filtration)
T3 sequence (looked up): T1 sequence (looked up) with E153K, A263N

Bre1-LR E378K/E500K = target: T4, Bre1-LR E378K/E500K (budding yeast, UniProt Q07457 227-700, E378K | E500K)
T4 construct: source: E. coli BL21 Rosetta (DE3), purified (Ni-NTA, heparin, gel filtration)
T4 sequence (looked up): T1 sequence (looked up) with E152K, E153K, E274K

B1: Lge1-CT (Lge1 residues 261–332), intein-chitin binding domain (CBD) tag construct (domain or fragment, budding yeast, UniProt Q02796 261-332, looked up)
chain: KNVKKTNNTESECEKAREVFKESDSIDSALEELNLKINSNELELRLLNNQCDKHALNIQLTQEKLDSLLLMQ
notes: Lge1, budding yeast, residues 261-332; residues 268–331 resolved in the electron density; the intein-CBD tag is named on the protein in the pull-down; also called intein-CBD-fused Lge1-CT; intein-CBD-tagged Lge1-CT; source: E. coli BL21 Rosetta (DE3): cleared cell extract on chitin resin (pull-down); purified (chitin, heparin, gel filtration) for ITC and SPR; co-purified with Bre1-LR for the …
Kd (Bre1-LR K379E): 58.1 ± 19 nM | dH (Bre1-LR K379E): -37.7 ± 1.6 kcal/mol | stoichiometry N (Bre1-LR K379E): 0.428 ± 0.008 | Kd (Bre1-LR K352E): 176 ± 45 nM | dH (Bre1-LR K352E): -22.9 ± 1.3 kcal/mol | stoichiometry N (Bre1-LR K352E): 0.432 ± 0.011 | Kd (Bre1-LR A489N): 154 ± 55 nM | dH (Bre1-LR A489N): -52.1 ± 3.6 kcal/mol | stoichiometry N (Bre1-LR A489N): 0.375 ± 0.012 | Kd (Bre1-LR E378K/E500K): 98 ± 31.2 nM | dH (Bre1-LR E378K/E500K): -40.7 ± 1.9 kcal/mol | stoichiometry N (Bre1-LR E378K/E500K): 0.256 ± 0.007
